According to the nanobody polyreactivity screen of Harvey et al. (2022):

Assay: yeast display, Sf9 membrane polyspecificity reagent, FACS + sequencing; frameworks hold sequencing errors
In short: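 Galactose-induced (36–48 hours) yeast carrying a synthetic nanobody display library were exposed to 10% biotinylated, detergent-solubilized Sf9 membrane reagent at 4 °C for 1 hour. FACS followed streptavidin microbead enrichment, using low and high (top ~1%) gates for expression (anti-HA) and reagent binding (streptavidin). Colony PCR, MiSeq 2 × 250 sequencing and CDR-length filtering followed. Labels for polyreactivity reflect the gate of origin.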

Sequence | polyreactivity (PSR sort gate)
QVQLVESGGGLVQAGGSLRLSCAASGSIFDNYAMGWYRQAPGKEREFDAGISWSGGSTRYADSVKGRFTISRDNAKNTVYLQMNSLKPEDTAVYYCNTGYGLVDFLYGYYYWGQGTQVTVSS | low polyreactivity
QVQLVESGGGLVQAGGSLRLSCAASGSIFDPNAMGWYRKALGKERELVAAITYSGVDTYYADSVKGRFTISLDNAKNTVYLQMNILKPEDTAVYFCAGDNGRVGYDYWGQGTQVTVSS | low polyreactivity
QVQLVESGGGLVQAGGSLRLSCAASGSIFDPYTMGWYRHEPGKESELVAAINWSGGSTYYADSVKGRFTISRENAKYTVYLQMNSLKPEDTAVYYCNADLTSYYEEDERNDDDYWGQGTQVTVSS | low polyreactivity
QVQLVESGGGLVQAGGSLRLSCAASGSIFDRYAMGWYRQAPGKERELVAAISTDGTRTYYADSVKGRFTISRDNAKNTVYLQMNSLKPEDTAVYYGAKYWRSNYYYWGQGTQVTVSS | high polyreactivity
QVQLVESGGGLVQAGGSLRLSCAASGSIFDSNAMGWYRQAPGKERELVAAITVSGGDTYYADSVKGRFTISRDNAKNTVYLQMISLKPEDTAVYYCAKQWFTYPYYYWGQGSQVTVSS | high polyreactivity
QVQLVESGGGLVQAGGSLRLSCAASGSIFDSYAMGWYRQAPGKERELVADITSDGSTHYADSEKGRFRISRDNAKNTVYLQMNSLKPEDTAVYYCAADYFFYLLGVPVVDVYYWGQGTQVTVSS | low polyreactivity
QVQLVESGGGLVQAGGSLRLSCAASGSIFDSYAMGWYRQAPGKERELVASISYRGGSTYYADSVKGRFTISRDNAKNTVYLQMNSLKPEDTAVYYCAATPGYHYRSWRYYYWGQGTQVTVSS | high polyreactivity
QVQLVESGGGLVQAGGSLRLSCAASGSIFDVNAMGRYRQAPGKERELVAAISQRGTRTYYADSVKGRFTISRDNAKNTVYLQLNSLKPEDTAVYYCNRGGWRQYDSWGQGTQVTVSS | high polyreactivity
QVQLVESGGGLVQAGGSLRLSCAASGSIFDVNAMGWYRPAPGKERELVAAISDSGGSTYYADSVKGRFTISRDTAKNTVYLQMNSLKPEDTAVYYCNADWSWYNYYDFDYWGQGTQVTVSS | low polyreactivity
QVQLVESGGGLVQAGGSLRLSCAASGSIFDVNAMGWYRQAPGKERELVAAISDSGGSTYYADSVKGRFTISRDNAKNTVYLQMNSLKPEDTAVYYCNADWSWYNYYDLDYWGQGTQVTVSS | low polyreactivity
QVQLVESGGGLVQAGGSLRLSCAASGSIFDVNAMGWYRQAPGKERELVAAISQRGTRTYYADSVKGRFTISRDYAKNTVYLQMNSLTPEDTAVYYCNRGGWRQYDSWGQGTQVTVSS | high polyreactivity
QVQLVESGGGLVQAGGSLRLSCAASGSIFDVNTMGWYRQAPGKERELVASITSSGSTYYADSVKGRFTISRDNAKNTVYLQMNSLKPEDTAVYYCAAASGGTVVGEGDYWGQGSQVTVSS | low polyreactivity
QVQLVESGGGLVQAGGSLRLSCAASGSIFDVYAMGWYRPAPGKERELVATISYGDSSTYYADSVKGRFTISRDNAKNTVYFQMNSLKPEDTAVYYCAADYLTAPRWRLLGEMEYWGQGTQVTVSS | low polyreactivity
QVQLVESGGGLVQAGGSLRLSCAASGSIFDVYAMGWYRQAPGKERELVARITWSGGSTYYADSVKGRFTISRDNAKNTVYLQMTSLKPEDTAVYYCNVDQVHPTRGLDYWGQGTQVTVSS | low polyreactivity
QVQLVESGGGLVQAGGSLRLSCAASGSIFDWYAMGWYRQAPGKEGELVAAISSGDSTYYADSVKGRFTISRDNAKNTVYLQMNSLKPEYTAVYYCAAVTKLSGIRYNYWGQGTQVTVSS | low polyreactivity
QVQLVESGGGLVQAGGSLRLSCAASGSIFDYNAKGWYRPAPGKERELVASISGDSGSTYYADSVKGRFTISRDNAKNTVYLQMNSLKPEDTAVYYCAAPYVSWDYRYYYWGQGTQVTVSS | low polyreactivity
QVQLVESGGGLVQAGGSLRLSCAASGSIFDYNAMGWYRQAPGKERELVAAISGSGVRTYYADSVKGRFTISRDNAKNTVYLQMNSLKPEDTAVYYCAAAVGRPRREYDYWGQGTQVTVSS | high polyreactivity
QVQLVESGGGLVQAGGSLRLSCAASGSIFDYNAMGWYRQAPGKERELVAAISSGGSTNYADSVKGRFTISRDNAKNTVYLQMNSLKPEDTAVYYCNTGLYWLGYWPDDYWGQGTQVTVSS | low polyreactivity
QVQLVESGGGLVQAGGSLRLSCAASGSIFDYNAMGWYRQAPGKERELVAAISVNGGNTYYADSVKGRFTISRDNAKNTVYLQMNSLKPEDTAVYYCAADSYGGSKYDYWGQGTQVTVSS | low polyreactivity
QVQLVESGGGLVQAGGSLRLSCAASGSIFDYNAMGWYRQAPGKERELVASIRWSGGRTYYADSVKGRFTISRDNAKNTVYLQMNSLKPEDTAVYYCNKGLFSTGNIPYYLIVYLEYNYWGQGTQVTVSS | low polyreactivity
QVQLVESGGGLVQAGGSLRLSCAASGSIFDYNAMGWYRQAPGKEREYVAANTWGSGSTYYADSVKGRFTNSRDNAKNTVYLQMNSLKPEDTAVYYCNADDYGGSTGRKGRYNYWGQGTQVTVSS | low polyreactivity
QVQLVESGGGLVQAGGSLRLSCAASGSIFDYNGMGWYRQAPGKERELVATITLSTARTYYADSVKGRFTISRDNAKNTVYLQMNSLKPEDTAVYYCATRYPKFRRRNYWGQGTQVTVSS | high polyreactivity
QVQLVESGGGLVQAGGSLRLSCAASGSIFDYYAMGWYRQAPGKERELVAAISRSGSRTYYADSVKGRFTISRDNAKNTVYLQMNSLKPEDTAVYYCNAYLTLPYSNHAYYYWGQGTQVTVSS | high polyreactivity
QVQLVESGGGLVQAGGSLRLSCAASGSIFDYYAMGWYRQAPGKERELVASINSSGTGTFYADSVKGRFTISRDNAKNTVYLQMNSLKPEDTAVYSCATRQAVGYSSGRGYGYWGQGTQVTVSS | low polyreactivity
QVQLVESGGGLVQAGGSLRLSCAASGSIFDYYAMGWYRQAPGKERELVASITWSGGRTSYADSVKGRFTISRDNAKNTVYLQMNSLKPEDSAVYYCAAKLWSYAYQHKRVWYYYWGQGTQVTVSS | high polyreactivity
QVQLVESGGGLVQAGGSLRLSCAASGSIFDYYAMGWYRQAPGKERELVATISGGGGTTYYADSVKGRFTISRDNAKNTVYLQMNSLKPEDTAVYYCAAVSLGYNYWGQGTQVTVSS | low polyreactivity
QVQLVESGGGLVQAGGSLRLSCAASGSIFDYYGMGWYRQAPGKEGELVATISQGGDSSYYADSVKGRFTISRDNAKNTVYLQMNSLKPEDTAVYYCAALVPIYRWYKLYYWGQGTQVTLSS | low polyreactivity
QVQLVESGGGLVQAGGSLRLSCAASGSIFDYYGMGWYRQAPGKERELVARITKRGGSTYYADSVMGRFTISRDNAKNTVYFQMNSLKPEDTAVYYCAAVVAYLFSGRGYRYNYWGQGTQVTLSS | high polyreactivity
QVQLVESGGGLVQAGGSLRLSCAASGSIFDYYTMGWYRQAPGKERELVAVIDNSGGSTYYADSVKGRFTISRDNAKNTVYLQMNSLKPEDTAVYYCARRFYNYVSYSNGGATLYDYWGQGTQVTVSS | high polyreactivity
QVQLVESGGGLVQAGGSLRLSCAASGSIFEAYAMGWYRQAPGKERELVAAITTAGGSTYYADSVKGRFTISRDNAKNTVYLQMNSLKPEETAVYYCARDYGKYKGYYWGQGTQVTVSS | low polyreactivity
